US20230210962A1, “CONDITIONING REGIMEN FOR TRANSPLANT” (Hansa Biopharma AB, priority 2020, published 2023)

What was measured:
[1] = target: Rabbit anti-thymocyte globulin (rATG) (rabbit); assay: cell-based or functional assay; details: scale: of 11 subjects with intact rATG remaining
[2] = tested on: anti-MHC-I H-2K^b mAb (mouse IgG2b) mediated killing of donor BMC; assay: In vivo EndoS mediated monoclonal DSA inhibition assay (NOD recipients); set-up: species or system NOD mice
Description: (§1) FIG. 1. EndoS inhibits monoclonal DSA mediated killing of donor bone marrow cells. Naive NOD (panel A-B) or B6.H-2^g7 (panel C-D) were given 30 µg EndoS and/or anti-H-2K^b mAb (10 µg or 100 µg) intravenously four hours prior to the infusion of a mixture of CFSE labeled NOD/CTV labeled B6 bone marrow cells (BMC; panel A-B) or CFSE labeled B6.H-2^g7/CTV labeled NOD.H-2^b BMC (panel C-D). Shown are experiment protocols for NOD (panel A) and B6.H-2^g7 (panel C). Shown are the ratios of dye labeled B6 to NOD cells (panel B) or NOD.H-2^b to B6.H-2^g7 cells (panel D) in the blood (left panels) collected one to three hours after bone marrow transplant (BMT), in host spleens (middle panels) and bone marrow (BM, right panels) collected at four hours after BMT. Mean±SEM are shown. Data were pooled from five (panel B) and four (panel D) independent experiments. Mann-Whitney U test (middle and right panels) was used for the comparisons shown; *p<0.05 and **p<0.01.
NOD or B6.H-2^g7 mice were i.v. injected with vehicle, anti-MHC-I H-2K^b (10 µg) alone, or a mixture of EndoS (30 µg) and anti-MHC-I H-2K^b (10 µg or 100 µg) as a pretreatment. EndoS and anti-H-2K^b were mixed right before injection. Four hours after this pretreatment, five million cells of a 1:1 mixture of carboxyfluorescein succinimidyl ester (CFSE) labeled NOD and cell trace violet dye (CTV) labeled B6 bone marrow cells (BMC) were i.v. injected into the pre-treated NOD mice. Similarly, a 1:1 mixture of CFSE labeled B6.H-2^g7 and CTV labeled NOD.H-2^b BMC were injected into pre-treated B6.H-2^g7 mice. Blood was collected at 1, 2, and 3 hours post cell administration and analyzed by flow cytometry. Splenocytes and BMC from one hind limb were collected from each mouse and analyzed at four hours post BMC injection.
To evaluate the effect of EndoS on inhibiting the antibody-mediated killing of donor BMC, DSA passive transfer experiments were performed. Of all DSA, anti-donor MHC or HLA antibodies are of most importance in the clinic. Therefore, naïve NOD mice were injected with mouse IgG2b antibodies targeting MHC-I K^b expressing cells, treated with EndoS or left untreated, and thereafter subjected to bone marrow transfer from B6 mice.

[3] = tested on: anti-MHC-I H-2K^b mAb (mouse IgG2b) mediated killing of donor BMC; assay: In vivo EndoS mediated monoclonal DSA inhibition assay (complement sufficient B6.H-2^g7 recipients); set-up: species or system B6.H-2^g7 mice; details: compared to NOD hosts
Description: as §1
NOD or B6.H-2^g7 mice were i.v. injected with vehicle, anti-MHC-I H-2K^b (10 µg) alone, or a mixture of EndoS (30 µg) and anti-MHC-I H-2K^b (10 µg or 100 µg) as a pretreatment. […] Blood was collected at 1, 2, and 3 hours post cell administration and analyzed by flow cytometry. Splenocytes and BMC from one hind limb were collected from each mouse and analyzed at four hours post BMC injection. […]

[4] = tested on: B6.CD45.2 donor bone marrow cells; assay: Short-term survival of donor BMC in sensitized recipients; assay type: in vivo, NOD mice; details: T cell-depleted NOD, enzyme 4 h prior to BMT, four hours post-BMT
Source text: FIG. 2. EndoS-imlifidase reduces DSA-mediated killing of donor BMC in sensitized recipients. (A-C) Naive NOD mice were immunized with FVB splenocytes four weeks prior to the administration of EndoS-imlifidase. Sera were harvested prior to immunization, prior to and four hours after enzyme treatment. Representative histograms on the left are for DSA-IgG Fc (panel A), DSA-IgG1 Fc (panel B), DSA-IgG3 Fc (panel C) and DSA-IgG3 heavy chain (panel D) with sera at a 1:25 dilution. Mean fluorescence intensity (MFI) of DSA in the titrated sera is shown on the right. Mean±SEM are shown. Ratio paired t test was used to compare MFI of DSA before and after enzyme treatment at each serum dilution with *p<0.05, **p<0.01. (D) Schematic of the experiment shown in E-F. Naive NOD mice were immunized with B6.CD45.1 splenocytes four weeks prior to injection of T cell depleting mAbs. […] Splenocytes and bone marrow cells were analysed for the expression of MHC-I H-2K^b and CD45.2. […]
To determine the short-term survival of donor BMC in sensitized recipients, NOD mice that had been sensitized to B6.CD45.1 splenocytes were T cell-depleted (anti-CD4, 0.25 mg, anti-CD8, 0.25 mg, anti-CD90 0.3 mg, i.p.) two days prior to BMT and i.v. injected with EndoS and imlifidase 4 hours prior to BMT (80×10^6 B6.CD45.2 BMC via i.v. injection). Splenocytes and BMC were analyzed at 4 hours post BMC injection.

[5] = Imlifidase serum concentration in healthy subjects; assay type: in vivo, human; details: 0.25 mg/kg imlifidase, 96 hours
Description: (§2) FIG. 5. Mean imlifidase concentration vs. nominal time from dosing (N=15). Data BLQ are included in mean calculation as BLQ/2. SD indicated with bars. FIG. 6. In vitro cleavage of rATG by imlifidase over time. Columns indicate number of subjects with visible intact rATG on Western blot post-imlifidase (N=11).
(§3) The cleavage pattern of rATG was investigated with sera from healthy subjects (n=11) treated with 0.25 mg/kg imlifidase (EudraCT number: 2019-002770-31). Serum samples were incubated with a fixed, clinically relevant, concentration of 50 µg/mL rATG (commonly observed after a dose of 1.5 mg/kg), for 2 hours at 37° C. Serum samples were collected pre-imlifidase through 14 days post-imlifidase and were analyzed using SDS-PAGE and Western blot, developed with a goat anti-rabbit IgG, F(ab′)2 specific antibody to evaluate the cleavage of rATG. Imlifidase concentration was analyzed using a validated electroluminescence immunoassay based on MSD technology.

rATG = assay: In vitro cleavage of rATG by imlifidase in post-dose sera (SDS-PAGE and Western blot); assay type: biochemical, rabbit; details: sera 96 hours post-imlifidase, 50 µg/mL rATG, 2 hours at 37° C
Description: as §2, §3

plasma IgG-pool = details: humans, cited from earlier work

Imlifidase (IdeS, Immunoglobulin G-degrading enzyme of S. pyogenes)
cleavage of rATG in sera of imlifidase-treated subjects (SDS-PAGE and Western blot), 96 hours post-imlifidase [1]: 8

B1: EndoS: Endoglycosidase of S. pyogenes, IgG endoglycosidase; mature sequence SEQ ID NO: 90 (protein)
chain: EEKTVQVQKGLPSIDSLHYLSENSKKEFKEELSKAGQESQKVKEILAKAQQADKQAQELAKMKIPEKIPMKPLHGPLYGGYFRTWHDKTSDPTEKDKVNSMGELPKEVDLAFIFHDWTKDYSLFWKELATKHVPKLNKQGTRVIRTIPWRFLAGGDNSGIAEDTSKYPNTPEGNKALAKAIVDEYVYKYNLDGLDVDVEHDSIPKVDKKEDTAGVERSIQVFEEIGKLIGPKGVDKSRLFIMDSTYMADKNPLIERGAPYINLLLVQVYGSQGEKGGWEPVSNRPEKTMEERWQGYSKYIRPEQYMIGFSFYEENAQEGNLWYDINSRKDEDKANGINTDITGTRAERYARWQPKTGGVKGGIFSYAIDRDGVAHQPKKYAKQKEFKDATDNIFHSDYSVSKALKTVMLKDKSYDLIDEKDFPDKALREAVMAQVGTRKGDLERFNGTLRLDNPAIQSLEGLNKFKKLAQLDLIGLSRITKLDRSVLPANMKPGKDTLETVLETYKKDNKEEPATIPPVSLKVSGLTGLKELDLSGFDRETLAGLDAATLTSLEKVDISGNKLDLAPGTENRQIFDTMLSTISNHVGSNEQTVKFDKQKPTGHYPDTYGKTSLRLPVANEKVDLQSQLLFGTVTNQGTLINSEADYKAYQNHKIAGRSFVDSNYHYNNFKVSYENYTVKVTDSTLGTTTDKTLATDKEETYKVDFFSPADKTKAVHTAKVIVGDEKTMMVNLAEGATVIGGSADPVNARKVFDGQLGSETDNISLGWDSKQSIIFKLKEDGLIKHWRFFNDSARNPETTNKPIQEASLQIFNIKDYNLDNLLENPNKFDDEKYWITVDTYSAQGERATAFSNTLNNITSKYWRVVFDTKGDRYSSPVVPELQILGYPLPNADTIMKTVTTAKELSQQKDKFSQKMLDELKIKEMALETSLNSKIFDVTAINANAGVLKDCIEKRQLLKK
modifications: Streptococcus pyogenes
ratio of B6 to NOD cells in blood ([2]; 30 µg EndoS i.v. with 10 µg anti-K^b mAb vs mAb alone, one hour post-BMT, stable at two and three hours): significantly increased | ratio of B6 to NOD cells in BM and spleen ([2]; EndoS with 10 µg anti-K^b mAb vs mAb only, four hours post-BMT): significant increase | ratio of B6 to NOD cells in blood ([2]; EndoS with 100 µg anti-K^b mAb vs mAb alone, one and two hours post-BMT): increased ratio | ratio of B6 to NOD cells in blood ([2]; EndoS with 100 µg anti-K^b mAb, three hours post-BMT): did not last | ratios of donor to recipient cells [3]: improved

B2: imlifidase: IdeS (Immunoglobulin G-degrading enzyme of S.pyogenes), IgG cysteine protease; mature sequence SEQ ID NO: 2 (protein)
chain: DSFSANQEIRYSEVTPYHVTSVWTKGVTPPANFTQGEDVFHAPYVANQGWYDITKTFNGKDDLLCGAATAGNMLHWWFDQNKDQIKRYLEEHPEKQKINFNGEQMFDVKEAIDTKNHQLDSKLFEYFKEKAFPYLSTKHLGVFPDHVIDMFINGYRLSLTNHGPTPVKEGSKDPRGGIFDAVFTRGDQSKLLTSRHDFKEKNLKEISDLIKKELTEGKALGLSHTYANVRINHVINLWGADFDSNGNLKAIYVTDSDSNASIGMKKYFVGVNSAGKVAISAKEIKEDNIGAQVLGLFTLSTGQDSWNQTN
modifications: Streptococcus pyogenes
B6.CD45.2 donor cells in BM [4]: 0.15% | B6.CD45.2 donor cells in spleen [4]: 0.46% | imlifidase serum concentration, individual variation [5]: <0.1 to 1.8 µg/mL | imlifidase serum concentration, mean [5]: 0.5 µg/mL | subjects in which complete cleavage of rATG was avoided (rATG): 8 of 11 | cleavage of the entire plasma IgG-pool (plasma IgG-pool; after dosing with IdeS): within minutes | time IgG levels in blood remain low (plasma IgG-pool; until newly synthesized IgG appeared): more than a week
